B1: AB1370035 hIgG1 (antibody, V domains shown)
VH: QVQLQQSGPGLVKPSQTLSLTCAISGDSVSSNSAAWNWIRQSPSRGLEWLGRTYYRSNWYNDYTLSVKSRITVNPDTSKNQFSLQLNSVTPEDTAVYYCVRGVGRFDSWGQGTLVTVSS
VL: DIQMTQSPSTLSASVGDRVIITCRASQSISSWLAWYQQKPGKAPKLLIYKASSLESGVPSRFSGSGSGTEFTLTITSLQPDDFASYYCQEYKTYSIFTFGPGTKVDIKR
B2: AB1370049 hIgG1 (antibody, V domains shown)
VH: LVQLQQSGPGLVKPSQTLSLTCAISGDSVSSDSATWNWIRQSPSRGLEWLGRTYYRSKWYNDYAVSVKSRITINPDTSKNQFSLQLNSVTPEDTAVYYCARGVGSFDYWGQGTLVTVSS
VL: not shown
B3: AB1370049 (hybridoma IgG) (antibody, V domains shown)
VH: LVQLQQSGPGLVKPSQTLSLTCAISGDSVSSDSATWNWIRQSPSRGLEWLGRTYYRSKWYNDYAVSVKSRITINPDTSKNQFSLQLNSVTPEDTAVYYCARGVGSFDYWGQGTLVTVSS
VL: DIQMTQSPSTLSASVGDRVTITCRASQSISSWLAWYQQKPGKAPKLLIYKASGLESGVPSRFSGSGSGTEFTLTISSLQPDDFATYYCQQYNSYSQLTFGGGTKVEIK
notes: IgG from hybridoma of Del-1 humanised mouse, tested as supernatant ('mouse IgG', detected with anti-mouse IgG) or Phynexus purified
B4: AB1370035 (hybridoma IgG) (antibody, V domains shown)
VH: QVQLQQSGPGLVKPSQTLSLTCAISGDSVSSNSAAWNWIRQSPSRGLEWLGRTYYRSNWYNDYTLSVKSRITVNPDTSKNQFSLQLNSVTPEDTAVYYCVRGVGRFDSWGQGTLVTVSS
VL: DIQMTQSPSTLSASVGDRVIITCRASQSISSWLAWYQQKPGKAPKLLIYKASSLESGVPSRFSGSGSGTEFTLTITSLQPDDFASYYCQEYKTYSIFTFGPGTKVDIK
notes: as for B3
B5: AB1370026 hIgG1 (antibody, V domains shown)
VH: EVQLVESGGGLVKPGGSLRLSCAASGFTFSSYAMSWVRQAPGKGLEWVSSISSGRSYIYYADSVKGRFTISRDNAKNSLYLKMNSLRDEDTAVYYCAREMQQLALDYWGQGTLVTVSS
VL: DIQMTQSPSSLSASVGDRVTITCRASQGISNFLAWFQQAPGKAPKSLIYAASSLQSGVPSKFSGSGSGTDFTLTISSLQPEDFATYYCQQYNSYPFTFGQGTKLEIKR
B6: AB1370083 hIgG1 (antibody, V domains shown)
VH: EVQLVESGGGLVKPGGSLRLSCAASGFTFSSYNMNWVRQAPGKGLEWVSSISSGSSYIYYADSMKGRFTISRDNAKNSLFLQMNSLRAEDTAVYYCARGMTTLTFDYWGQGTLVTVSS
VL: DIQMTQSPSSLSASVGDRVTITCRASQGISTFLAWFQQKPGKAPKSLIYAASSLQSGVPSKFSGSGSETDFTLTISSLQPEDFATYYCQQYISYPLTFGGGTKVEIKR
B7: AB1370026 (hybridoma IgG) (antibody, V domains shown)
VH: EVQLVESGGGLVKPGGSLRLSCAASGFTFSSYAMSWVRQAPGKGLEWVSSISSGRSYIYYADSVKGRFTISRDNAKNSLYLKMNSLRDEDTAVYYCAREMQQLALDYWGQGTLVTVSS
VL: DIQMTQSPSSLSASVGDRVTITCRASQGISNFLAWFQQAPGKAPKSLIYAASSLQSGVPSKFSGSGSGTDFTLTISSLQPEDFATYYCQQYNSYPFTFGQGTKLEIK
notes: as for B3
B8: AB1370095 hIgG1 (antibody, V domains shown)
VH: EVQLVESGGGLVKPGGSLRLSCAASGFTFSSYSMNWVRQAPGKGLEWVSSISSRSSYVYYADSVKGRFTISRDNAKNSLYLQMNSLRAEDTAVYYCARGMTTLTFDYWGQGTLVTVSS
VL: DIQMTQSPSSLSASVGDRVTITCRASQGISSFLAWFQQKPGKAPKSLIYAASSLQSGVPSKFSGSGSGTDFTLTISSLQPEDFATYYCQQYNSYPLTFGGGTKVEIKR
B9: AB1370117 hIgG1 (antibody, V domains shown)
VH: QVQLQQSGPGLVKPSQTLSLTCAISGDSVSSDSATWNWIRQSPSRGLEWLGRTYYRSKWYSDYAVSVKSRITINPDTSKNQFSLQLNSVTPEDTAVYFCARGGAPFDYWGQGTLVTVSS
VL: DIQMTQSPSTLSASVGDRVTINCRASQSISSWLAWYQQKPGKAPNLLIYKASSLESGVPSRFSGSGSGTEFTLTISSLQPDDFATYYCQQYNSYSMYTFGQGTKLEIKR
B10: AB1370117 (hybridoma IgG) (antibody, V domains shown)
VH: QVQLQQSGPGLVKPSQTLSLTCAISGDSVSSDSATWNWIRQSPSRGLEWLGRTYYRSKWYSDYAVSVKSRITINPDTSKNQFSLQLNSVTPEDTAVYFCARGGAPFDYWGQGTLVTVSS
VL: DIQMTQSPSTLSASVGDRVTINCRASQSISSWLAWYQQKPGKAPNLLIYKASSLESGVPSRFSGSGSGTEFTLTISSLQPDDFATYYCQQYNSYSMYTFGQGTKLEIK
notes: as for B3
B11: AB1370083 (hybridoma IgG) (antibody, V domains shown)
VH: EVQLVESGGGLVKPGGSLRLSCAASGFTFSSYNMNWVRQAPGKGLEWVSSISSGSSYIYYADSMKGRFTISRDNAKNSLFLQMNSLRAEDTAVYYCARGMTTLTFDYWGQGTLVTVSS
VL: DIQMTQSPSSLSASVGDRVTITCRASQGISTFLAWFQQKPGKAPKSLIYAASSLQSGVPSKFSGSGSETDFTLTISSLQPEDFATYYCQQYISYPLTFGGGTKVEIK
notes: as for B3
B12: AB1370095 (hybridoma IgG) (antibody, V domains shown)
VH: EVQLVESGGGLVKPGGSLRLSCAASGFTFSSYSMNWVRQAPGKGLEWVSSISSRSSYVYYADSVKGRFTISRDNAKNSLYLQMNSLRAEDTAVYYCARGMTTLTFDYWGQGTLVTVSS
VL: DIQMTQSPSSLSASVGDRVTITCRASQGISSFLAWFQQKPGKAPKSLIYAASSLQSGVPSKFSGSGSGTDFTLTISSLQPEDFATYYCQQYNSYPLTFGGGTKVEIK
notes: as for B3

Legend:
Human FRα ECD-Avi-His [1] = biological target: T1, Human FRα ECD-Avi-His (human, biotin on the Avi-tag (BirA) in the HTRF assays); test: SPR (Biacore T200, 25°C); antibody captured on Protein A, FRα ECD as analyte
T1 construct: also called biotinylated human FRα; folate receptor alpha
T1 sequence (chain, as listed by the source limits assumed): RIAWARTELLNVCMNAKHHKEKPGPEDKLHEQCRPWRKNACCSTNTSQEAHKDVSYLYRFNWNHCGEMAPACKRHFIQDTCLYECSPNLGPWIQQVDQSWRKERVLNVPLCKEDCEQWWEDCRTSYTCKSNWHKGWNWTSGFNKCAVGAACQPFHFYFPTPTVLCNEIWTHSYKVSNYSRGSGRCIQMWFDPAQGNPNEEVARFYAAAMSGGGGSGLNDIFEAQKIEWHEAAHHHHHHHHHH
Protocol: (§1) Protein A was covalently immobilised to a CM5 chip surface using standard amine coupling techniques at a concentration of 50 μg/ml in 10 mM Sodium acetate, pH 4.0. The antibody was captured onto the Protein A surface in HBS-EP+ buffer, pH 7.4 at 10 μl/min to enable FRα ECD binding. The FRα ECD was serially diluted (0.4 nM-100 nM human FRα ECD; 0.8 nM-200 nM cyno FRα ECD; 30 nM-4000 nM mouse FRα ECD and rat FRα ECD) in HBS-EP+ buffer, pH 7.4 and flowed over the chip at 50 μl/min, with 2 minutes association and 8 minutes dissociation. The chip surface was fully regenerated with pulses of 3 M MgCl₂ to remove captured antibody together with any bound FRα ECD. Multiple buffer-only injections were made under the same conditions to allow for double reference subtraction of the final sensorgram sets, which were analysed using Biacore T200 Evaluation Software to derive equilibrium dissociation constants.

Cyno FRα ECD-Avi-His [2] = biological target: T2, Cyno FRα ECD-Avi-His (cynomolgus monkey, biotin on the Avi-tag (BirA) in the HTRF assays); test: as above
T2 construct: Soluble region with C-terminal Avi and His tags
T2 sequence (chain, as listed by the source limits assumed): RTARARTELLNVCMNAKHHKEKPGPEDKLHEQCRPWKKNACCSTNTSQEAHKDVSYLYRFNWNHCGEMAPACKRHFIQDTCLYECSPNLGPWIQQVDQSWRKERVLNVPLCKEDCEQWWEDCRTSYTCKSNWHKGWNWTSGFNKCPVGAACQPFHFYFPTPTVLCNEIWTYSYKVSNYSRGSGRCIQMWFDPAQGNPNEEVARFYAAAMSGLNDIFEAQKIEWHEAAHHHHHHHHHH
Protocol: as §1

Human FRα ECD-Avi-His [3] = biological target: T1, Human FRα ECD-Avi-His; test: MOv19 HTRF epitope competition assay, geomean; IgG kept 2 weeks at 4°C; competitor MOv19
Cyno FRα ECD-Avi-His [4] = biological target: T2, Cyno FRα ECD-Avi-His; test: SPR (Biacore T200)
Protocol: as §1

Human FRα ECD-Avi-His [5] = biological target: T1, Human FRα ECD-Avi-His; test: HTRF epitope competition assay, geomean n>2; competitor DyLight 650 labelled Comparator Antibody 2
Protocol: (§2) HTRF assays were performed in 384-well white shallow well non-binding plates (Corning, 4513) in assay buffer containing phosphate-buffered saline (PBS) (Life Technologies, 14190), 0.100 v/v bovine serum albumin (BSA) (Sigma, A9576), and 0.4 M potassium fluoride (VWR International, 26820).
(§3) HTRF epitope competition assays were set up using a titration of test IgG, 1 nM streptavidin cryptate, biotinylated human FRα and DyLight 650 labelled IgG to assay volume of 10 μl. […] Assay plates were incubated for 3-4 h at room temperature prior to fluorescence measurement.

Human FRα ECD-Avi-His [6] = biological target: T1, Human FRα ECD-Avi-His; test: MOv19 HTRF epitope competition assay, geomean; IgG kept 2 weeks at 45°C; competitor MOv19
Human FRα ECD-Avi-His [7] = biological target: T1, Human FRα ECD-Avi-His; test: MOv19 HTRF epitope competition assay; accelerated stability study
Human FRα ECD-Avi-His [8] = biological target: T1, Human FRα ECD-Avi-His; test: HTRF epitope competition assay, geomean n>2; competitor DyLight 650 labelled Comparator Antibody 3
Protocol: as §2, §3

Human FRγ ECD-Avi-His = biological target: T3, Human FRγ ECD-Avi-His (human, biotin on the Avi-tag (BirA) in the HTRF assays); test: HTRF antigen binding assay; hybridoma supernatant, 1 nM biotinylated antigen
T3 construct: Soluble region with C-terminal Avi and His tags
T3 sequence (chain, as listed by the source limits assumed): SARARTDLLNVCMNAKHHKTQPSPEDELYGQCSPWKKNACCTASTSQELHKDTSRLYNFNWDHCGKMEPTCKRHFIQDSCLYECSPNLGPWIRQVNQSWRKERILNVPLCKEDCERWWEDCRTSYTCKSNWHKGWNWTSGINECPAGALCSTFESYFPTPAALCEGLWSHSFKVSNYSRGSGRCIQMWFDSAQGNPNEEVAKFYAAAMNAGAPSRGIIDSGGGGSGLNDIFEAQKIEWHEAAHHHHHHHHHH
Protocol: as §2
(§4) Supernatants containing mouse IgG from hybridoma cells were incubated at a final assay dilution of 25% with 0.5 nM streptavidin-cryptate (CisBio, 610SAKLB), anti-mouse IgG AF647 (Jackson ImmunoResearch, 115-605-164) and 1 nM biotinylated human FRα, cyno FRα, mouse FRα, human FRβ or human FRγ to give a final assay volume of 10 μl, for 4 hours at room temperature before fluorescence was measured.

Mouse FRα ECD-Avi-His = biological target: T4, Mouse FRα ECD-Avi-His (mouse, biotin on the Avi-tag (BirA) in the HTRF assays); test: as above
T4 construct: Soluble region with C-terminal Avi and His tags
T4 sequence (chain, as listed by the source limits assumed): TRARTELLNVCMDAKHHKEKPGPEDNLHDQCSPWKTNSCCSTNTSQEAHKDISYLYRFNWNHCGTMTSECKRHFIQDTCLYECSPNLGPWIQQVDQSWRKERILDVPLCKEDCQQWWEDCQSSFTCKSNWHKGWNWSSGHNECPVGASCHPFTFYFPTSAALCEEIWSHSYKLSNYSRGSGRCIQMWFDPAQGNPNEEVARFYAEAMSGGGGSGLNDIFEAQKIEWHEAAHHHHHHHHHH
Protocol: as §2, §4

Human FRβ ECD-Avi-His = biological target: T5, Human FRβ ECD-Avi-His (human, biotin on the Avi-tag (BirA) in the HTRF assays); test: as above
T5 construct: Soluble region with C-terminal Avi and His tags; also called Human FRß
T5 sequence (chain, as listed by the source limits assumed): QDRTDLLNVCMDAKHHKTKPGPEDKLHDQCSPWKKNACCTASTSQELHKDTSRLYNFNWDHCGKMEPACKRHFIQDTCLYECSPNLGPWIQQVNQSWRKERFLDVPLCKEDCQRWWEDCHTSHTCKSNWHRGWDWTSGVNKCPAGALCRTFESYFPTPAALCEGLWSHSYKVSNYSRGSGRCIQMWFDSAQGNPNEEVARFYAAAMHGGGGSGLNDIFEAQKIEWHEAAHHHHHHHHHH
Protocol: as §2, §4

Human FRα ECD-Avi-His [9] = biological target: T1, Human FRα ECD-Avi-His; test: HTRF epitope competition assay, geomean n>2; competitor DyLight 650 labelled Comparator Antibody 1
Protocol: as §2, §3

Binder | Kd (Human FRα ECD-Avi-His [1]) | koff (Human FRα ECD-Avi-His [1]) | kon (Human FRα ECD-Avi-His [1]) | Kd (Cyno FRα ECD-Avi-His [2]) | koff (Cyno FRα ECD-Avi-His [2]) | kon (Cyno FRα ECD-Avi-His [2]) | IC50 (Human FRα ECD-Avi-His [3]) | fold difference of affinity, cyno FRα against human FRα (Cyno FRα ECD-Avi-His [4]) | IC50 (Human FRα ECD-Avi-His [5]) | IC50 (Human FRα ECD-Avi-His [6]) | fold difference (IC50 45°C against 4°C) (Human FRα ECD-Avi-His [7]) | IC50 (Human FRα ECD-Avi-His [8]) | binding result (Human FRγ ECD-Avi-His) | binding result (Mouse FRα ECD-Avi-His) | binding result (Human FRβ ECD-Avi-His) | IC50 (Human FRα ECD-Avi-His [9])
B1 | 0.93 nM | 0.000527 s⁻¹ | 568000 M⁻¹ s⁻¹ | 1.1 nM | 0.000508 s⁻¹ | 475000 M⁻¹ s⁻¹ | 0.945 nM | ≤ 2.5 fold | 1.46 nM | 1.16 nM | 1.23 fold | 0.285 nM |  |  |  | 
B2 |  |  |  | 36.9 nM |  |  |  |  |  |  |  |  |  |  |  | 
B3 |  |  |  |  |  |  |  |  |  |  |  |  | no binding | no binding | no binding | 
B4 |  |  |  |  |  |  |  |  |  |  |  |  | no binding | no binding | no binding | 
B5 | 1.3 nM | 0.000354 s⁻¹ | 279000 M⁻¹ s⁻¹ | 1.8 nM | 0.000342 s⁻¹ | 195000 M⁻¹ s⁻¹ | 0.711 nM | ≤ 2.5 fold | 0.177 nM | 0.708 nM | 1 fold |  |  |  |  | 0.032 nM
B6 | 0.93 nM | 0.000135 s⁻¹ | 145000 M⁻¹ s⁻¹ | 1.56 nM | 0.00016 s⁻¹ | 101000 M⁻¹ s⁻¹ | 0.0511 nM | ≤ 2.5 fold | 0.0806 nM | 0.0665 nM | 1.3 fold |  |  |  |  | 0.0296 nM
B7 |  |  |  |  |  |  |  |  |  |  |  |  | no binding | no binding | no binding | 
B8 | 13.5 nM | 0.00129 s⁻¹ | 95700 M⁻¹ s⁻¹ | 19.1 nM | 0.00183 s⁻¹ | 95800 M⁻¹ s⁻¹ | 5.07 nM | ≤ 2.5 fold | 4.15 nM | 4.31 nM | 0.85 fold |  |  |  |  | 0.363 nM
B9 | 2.6 nM | 0.000762 s⁻¹ | 293000 M⁻¹ s⁻¹ | 5.1 nM | 0.00187 s⁻¹ | 364000 M⁻¹ s⁻¹ | 3.75 nM | ≤ 2.5 fold | 9.33 nM | 5.48 nM | 1.46 fold | 1.83 nM |  |  |  | 
B10 |  |  |  |  |  |  |  |  |  |  |  |  | no binding | no binding | no binding | 
B11 |  |  |  |  |  |  |  |  |  |  |  |  | no binding | no binding | no binding | 
B12 |  |  |  |  |  |  |  |  |  |  |  |  | no binding | no binding | no binding | 

— patent publication US20230295293A1 (published 2023)
